Assay results as given in the supplement of paper PMC9732359.
± gives the uncertainty stated by the source.

Assay: protein stability index of a GFP-peptide fusion (yeast GPS) (PSI 1-4); higher = more stable; sorted into four equal gates, so the index is relative within each strain
Outline: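 Yeast carrying a pooled library were grown to mid-log phase in leucine-free medium. Each library plasmid expresses Cherry and has a tiled 17-residue yeast protein peptide fused downstream of GFP. Cells were sorted into four equal gates by GFP/Cherry ratio, and plasmids from each gate were PCR-amplified, Illumina-sequenced and assigned to strains by barcode. Summing, across gates, the read frequency times the gate number gave each peptide's protein stability index.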

Row | Sequence | protein stability index (doa10∆) | protein stability index (pdr5∆) | protein stability index (san1∆) | protein stability index (ubr1∆)
1 | IETLDPALIRPGRIDRK [RPT2] | 2.53 ± 0.26 | 3.18 ± 0.19 | 2.88 ± 0.24 | 3.02 ± 0.2
2 | KLDQDDEIYIPINGNEA [CSI1] | 3.24 ± 0.15 | 3.46 ± 0.091 | 3.19 ± 0.09 | 3.45 ± 0.072
3 | DPFSDVDDDQDYVVAPG [GRR1] | 2.56 ± 0.12 | 2.17 ± 0.2 | 1.74 ± 0.19 | 3.55 ± 0.24
4 | IKRMAIRNIVEAAAVRD [RPS26A] | 1.29 ± 0.069 | 1.68 ± 0.097 | 1.83 ± 0.16 | 1.93 ± 0.055
5 | FLYEILSSLKSFAIYSS [SRB8] | 1.24 ± 0.053 | 1.16 ± 0.038 | 1.34 ± 0.099 | 1.14 ± 0.047
6 | MGQIATFIYFAYFLIIV [COB] | 1.63 ± 0.053 | 1.29 ± 0.046 | 1.16 ± 0.098 | 1.11 ± 0.026
7 | TCRKHTQHKVTQYKAGK [RPL42A] | 3.09 ± 0.14 | 2.85 ± 0.12 | 2.62 ± 0.07 | 2.91 ± 0.088
8 | TPDASKPSFSFGVPNSS [YLR335W/NUP2] | 2.92 ± 0.088 | 3.14 ± 0.086 | 3.07 ± 0.068 | 2.94 ± 0.072
9 | LVILKPDLNIDRNNSTN [SIN4] | 2.73 ± 0.057 | 2.23 ± 0.064 | 2.56 ± 0.065 | 2.67 ± 0.041
10 | LRQQQQQQDQPEQSEQP [RPN10] | 3.21 ± 0.09 | 3.28 ± 0.076 | 2.74 ± 0.081 | 3.17 ± 0.064
11 | EQQKEELTDKLSALNSE [SMC1] | – | 3.19 ± 0.11 | 2.73 ± 0.15 | 3.14 ± 0.12
12 | LDPLARVSKDKKSGSLT [FAS2] | 3.31 ± 0.1 | 3.2 ± 0.096 | 3.22 ± 0.084 | 3.14 ± 0.16
13 | YVSQIRKHKRVSPNAAP [YAR002W/NUP60] | 1.95 ± 0.084 | 1.64 ± 0.053 | 2.53 ± 0.085 | 2.29 ± 0.081
14 | FMHDPSVFYNIANMVLP [SIR2] | 2 ± 0.05 | 2.03 ± 0.04 | 1.85 ± 0.054 | 1.7 ± 0.036
15 | IRNLTVFTMKELAQYMK [RGR1] | 3.04 ± 0.24 | 2.78 ± 0.22 | 2.71 ± 0.2 | 2.79 ± 0.08
16 | PASKHDKEVVYFDEWTI [RPC34] | 3.27 ± 0.081 | 3.43 ± 0.065 | 3.04 ± 0.056 | 3.12 ± 0.082
17 | WREQLRNRDIALFQPPN [ROX3] | 2.31 ± 0.066 | 2.95 ± 0.066 | 2.73 ± 0.059 | 1.96 ± 0.047
18 | NIRSQLLSENRSEKSTT [SRP54] | 3.04 ± 0.06 | 3 ± 0.1 | 3.01 ± 0.055 | 3.13 ± 0.038
19 | GPSIYKTDPAGYYVGYK [SCL1] | 3.17 ± 0.092 | 3.4 ± 0.08 | 3.33 ± 0.059 | 3.38 ± 0.091
20 | PRMASVFENYVKKTGEN [CDC53] | 3.46 ± 0.11 | 3.4 ± 0.087 | 3.54 ± 0.065 | 3.47 ± 0.049
21 | IMSTEAHVNKVTEETTK [SIR4] | 2.77 ± 0.09 | 2.89 ± 0.059 | 2.97 ± 0.04 | 2.85 ± 0.063
22 | ERSDLLPYLSDTCAVSF [YJR042W/NUP85] | 2.31 ± 0.099 | 2.46 ± 0.06 | 2.59 ± 0.076 | 2.45 ± 0.041
23 | LETDGVNLSEVMTVPGI [RPO21] | 2.75 ± 0.19 | 3.36 ± 0.21 | 3.03 ± 0.13 | 3.34 ± 0.14
24 | LGKYEFSKILPAALDGL [ESC2] | 2.28 ± 0.055 | 2.67 ± 0.072 | 1.61 ± 0.13 | 2 ± 0.086
25 | EIEDGQDGGVTPYSNES [RPO21] | 3.49 ± 0.1 | 3.35 ± 0.069 | 3.38 ± 0.049 | 3.22 ± 0.08
26 | QSSESFDDSDITKFALF [YML103C/NUP188] | 2.44 ± 0.1 | 2.23 ± 0.071 | 2.48 ± 0.083 | 2.46 ± 0.075
27 | ANVIKALAFCEIGITQQ [RRP4] | 1.36 ± 0.07 | 2 ± 0.079 | 1.76 ± 0.16 | 2.26 ± 0.075

Row | Sequence | protein stability index (doa10∆) | protein stability index (pdr5∆) | protein stability index (san1∆) | protein stability index (ubr1∆)
28 | LNELKAIKDKLEQDLHF [YIL149C/MLP2] | 3 ± 0.07 | 3.13 ± 0.069 | 2.82 ± 0.07 | 3.24 ± 0.063
29 | QKLLKQLDSDANKLSKS [ISW2] | 3.03 ± 0.048 | 2.89 ± 0.053 | 2.92 ± 0.047 | 2.98 ± 0.04
30 | SNDTTAFNDSCVNLSLF [SRB8] | 3.07 ± 0.065 | 2.92 ± 0.069 | 3.13 ± 0.06 | 2.34 ± 0.035
31 | SLTAEAMTAAEHGLHAP [CYT1] | 2.82 ± 0.091 | 3.25 ± 0.073 | 2.94 ± 0.057 | 3.1 ± 0.045
32 | NPSVKQGEVGAVFIVPK [SWP82] | 3.23 ± 0.26 | 3.23 ± 0.15 | 3.28 ± 0.12 | –
33 | EKKPAAKKTSTSVDGKK [HTB2] | 2.38 ± 0.2 | 2.94 ± 0.15 | 2.72 ± 0.19 | 2.55 ± 0.2
34 | SKKNRPTLQVGDLVYAR [RRP40] | 2.36 ± 0.1 | 2.48 ± 0.09 | 1.87 ± 0.12 | 2.46 ± 0.043
35 | ADCQAELTKTKSSLYSA [YIL149C/MLP2] | 2.6 ± 0.055 | 2.59 ± 0.055 | 2.46 ± 0.069 | 2.23 ± 0.045
36 | MSQSTASLVPEGNQGSL [MED8] | 3.16 ± 0.12 | 2.97 ± 0.1 | 2.62 ± 0.096 | 2.76 ± 0.13
37 | AKKNNFIEDLAPEQQVQ [UBP6] | 2.81 ± 0.073 | 3.15 ± 0.08 | 2.99 ± 0.08 | 3.06 ± 0.065
38 | KISGGNDKQGFPMKQGV [RPS6A] | 2.53 ± 0.071 | 2.83 ± 0.085 | 3.01 ± 0.059 | 2.85 ± 0.067
39 | IRGSDQAIPKFQMNCYA [RPN2] | 1.27 ± 0.085 | 1.62 ± 0.066 | 1.55 ± 0.13 | 1.47 ± 0.11
40 | LYQLVDIRDSSCQGNVI [YMR129W/POM152] | 3.02 ± 0.1 | 3.12 ± 0.089 | 2.86 ± 0.058 | 2.96 ± 0.048
41 | VMTVPGIDPTRIYTNSF [RPO21] | 2.44 ± 0.072 | 2.11 ± 0.067 | 2.59 ± 0.08 | 2.1 ± 0.056
42 | DSGIGSNGSGIVAAGGG [CSL4] | 3.45 ± 0.066 | 3.34 ± 0.07 | 3.35 ± 0.052 | 3.42 ± 0.058
43 | MNNETSGKETASAPLCS [DLS1] | 3.01 ± 0.067 | 3.21 ± 0.06 | 3.18 ± 0.055 | 3.12 ± 0.063
44 | LKGLLQELKADSPFSLI [SRP72] | 1.43 ± 0.059 | 1.26 ± 0.059 | 2.42 ± 0.092 | 1.45 ± 0.046
45 | PNIFPNLTYYNEKLECI [ITC1] | 2.6 ± 0.07 | 2.58 ± 0.067 | 2.59 ± 0.056 | 2.68 ± 0.05
46 | KKRKNKSSGSSMATPTH [ROX3] | 2.99 ± 0.071 | 3.12 ± 0.077 | 2.96 ± 0.051 | 3.28 ± 0.063
47 | HAMGGREGLIDTAVKTA [RPO21] | 1.24 ± 0.076 | 1.35 ± 0.065 | 1.23 ± 0.15 | 1.17 ± 0.054
48 | QGNYVTEDIREGDQAEV [YMR129W/POM152] | 3.49 ± 0.086 | 3.32 ± 0.073 | 3.3 ± 0.066 | 3.39 ± 0.083
49 | EEIKTVDPASAPNHSPE [RRP6] | 3.01 ± 0.096 | 2.96 ± 0.072 | 3.27 ± 0.068 | 3.19 ± 0.056
50 | MVDVEEKSQEVEYVDPT [RPN7] | 3.06 ± 0.22 | – | – | 3.38 ± 0.16
51 | FGKTTANLPANSSTSPA [YLR335W/NUP2] | 3.01 ± 0.047 | 3.14 ± 0.058 | 2.96 ± 0.045 | 3.12 ± 0.035
52 | NRRLFKKCIDFFEMLIS [RRI2] | 2.2 ± 0.037 | 2.05 ± 0.045 | 2.12 ± 0.058 | 2.02 ± 0.03
53 | RHFGMGPHKGKAPRILS [RPL18A] | 2.57 ± 0.14 | 2.52 ± 0.079 | 3.09 ± 0.13 | 2.73 ± 0.1
